Measurements from patent publication US20020173481A1.

Molecular target: endogenous GCSF receptor of 32Dcl3 cells
Test: cell-based or functional assay

kinase activity of Bmx in 32Dcl3 cells: 1.7 fold
Substance: hGCSF (from UniProt P09919 31-204) (ligand)
